Data on 2 molecules can be found in PMC3448977 (Biochemistry, 2012).

One test addresses BMP-9 (Homo sapiens) (UniProt Q9UK05). Conditions: cited from earlier work.
A further test has as its target T1, Human BMP-9 (human, UniProt Q9UK05 320-429).
T1 sequence (looked up): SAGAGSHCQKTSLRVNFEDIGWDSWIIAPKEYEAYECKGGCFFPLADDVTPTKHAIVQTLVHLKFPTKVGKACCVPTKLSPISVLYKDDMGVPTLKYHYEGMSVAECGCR
Nature of the test: SPR. On the technique in general: SPR reads the build-up and loss of mass on a sensor chip optically.

A word on the Kd: it is the constant that tells how readily two partners part at equilibrium. With Fc-Alk1 ECD (from UniProt P37023), the Kd in the test with BMP-9 (Homo sapiens) is 0.0025 µM.

B1: Alk1 extracellular domain with Arg53-Glu54-Leu55 swapped for Asp-Phe-Gln of Alk3 (Alk1-DFQ) (domain or fragment, human)
chain: GSHMDPVKPSRGPLVTCTCESPHCKGPTCRGAWCTVVLVREEGRHPQEHRGCGNLHDFQCRGRPTEFVNHYCCDSHLCNHNVSLVLEATQPPSEQPGTDGQ
Molecule B1 yielded a Kd with Human BMP-9 of 5.7 µM.
